The values that follow come from IntAct's records for PubMed 12869544.

B1: Translocase of chloroplast 33, chloroplastic (Arabidopsis thaliana (Mouse-ear cress)), O23680 (parent)
chain: MGSLVREWVGFQQFPAATQEKLIEFFGKLKQKDMNSMTVLVLGKGGVGKSSTVNSLIGEQVVRVSPFQAEGLRPVMVSRTMGGFTINIIDTPGLVEAGYVNHQALELIKGFLVNRTIDVLLYVDRLDVYRVDELDKQVVIAITQTFGKEIWCKTLLVLTHAQFSPPDELSYETFSSKRSDSLLKTIRAGSKMRKQEFEDSAIAVVYAENSGRCSKNDKDEKALPNGEAWIPNLVKAITDVATNQRKAIHVDKKMVDGSYSDDKGKKLIPLIIGAQYLIVKMIQGAIRNDIKTSGKPL

The variants in this assay derive from B1. The conditions noted are these: with tc159_arath TOC159, O81283.
Chain of tc159_arath TOC159, O81283 (O81283 whole entry): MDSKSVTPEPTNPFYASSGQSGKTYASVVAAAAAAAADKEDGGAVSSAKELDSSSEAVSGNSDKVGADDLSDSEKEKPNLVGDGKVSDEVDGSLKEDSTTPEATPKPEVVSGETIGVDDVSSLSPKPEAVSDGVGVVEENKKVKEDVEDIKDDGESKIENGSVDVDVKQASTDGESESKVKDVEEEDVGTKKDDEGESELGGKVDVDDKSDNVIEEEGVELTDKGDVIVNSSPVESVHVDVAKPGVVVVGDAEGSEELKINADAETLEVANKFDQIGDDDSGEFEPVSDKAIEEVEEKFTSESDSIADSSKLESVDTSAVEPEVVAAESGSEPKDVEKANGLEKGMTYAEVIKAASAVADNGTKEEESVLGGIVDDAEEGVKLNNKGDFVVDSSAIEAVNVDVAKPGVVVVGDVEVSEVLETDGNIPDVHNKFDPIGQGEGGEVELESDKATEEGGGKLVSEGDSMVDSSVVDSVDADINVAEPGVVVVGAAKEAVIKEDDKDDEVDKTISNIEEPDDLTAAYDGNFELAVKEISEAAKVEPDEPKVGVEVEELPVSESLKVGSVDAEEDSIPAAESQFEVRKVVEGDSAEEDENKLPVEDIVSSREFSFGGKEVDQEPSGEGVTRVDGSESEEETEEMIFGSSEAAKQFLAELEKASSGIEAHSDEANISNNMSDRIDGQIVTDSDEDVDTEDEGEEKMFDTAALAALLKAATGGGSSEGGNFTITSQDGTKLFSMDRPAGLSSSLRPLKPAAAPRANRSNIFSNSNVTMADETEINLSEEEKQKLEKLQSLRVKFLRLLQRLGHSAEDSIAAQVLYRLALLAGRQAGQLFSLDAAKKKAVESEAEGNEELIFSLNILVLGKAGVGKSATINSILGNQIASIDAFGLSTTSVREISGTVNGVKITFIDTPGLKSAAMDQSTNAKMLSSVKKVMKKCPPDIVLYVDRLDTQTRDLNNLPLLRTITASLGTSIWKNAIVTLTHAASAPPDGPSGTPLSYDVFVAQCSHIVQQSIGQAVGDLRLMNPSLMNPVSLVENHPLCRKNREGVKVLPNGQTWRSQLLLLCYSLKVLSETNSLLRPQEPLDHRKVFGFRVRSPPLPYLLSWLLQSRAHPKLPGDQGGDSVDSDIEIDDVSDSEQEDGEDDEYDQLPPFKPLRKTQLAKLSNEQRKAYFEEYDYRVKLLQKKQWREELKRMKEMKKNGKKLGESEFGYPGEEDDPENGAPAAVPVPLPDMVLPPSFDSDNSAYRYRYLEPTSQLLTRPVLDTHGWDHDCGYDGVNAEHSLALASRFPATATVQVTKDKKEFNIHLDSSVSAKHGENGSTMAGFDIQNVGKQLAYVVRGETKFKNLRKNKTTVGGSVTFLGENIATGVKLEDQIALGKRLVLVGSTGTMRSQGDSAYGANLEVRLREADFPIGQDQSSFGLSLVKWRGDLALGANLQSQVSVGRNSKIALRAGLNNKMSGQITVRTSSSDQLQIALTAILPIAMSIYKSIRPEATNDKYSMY
Turning to MGSLVREWVGFQQFPAATQEKLIEFFGKLKQKDMNSMTVLVLGKGGVGKSSTVNSLIGEQVVRVSPFQAEGLRPVMVSRTMGGFTINIIDTPGLVEAGYVNHQALELIKGFLVNRTIDVLLYVDRLDVYAVDELDKQVVIAITQTFGKEIWCKTLLVLTHAQFSPPDELSYETFSSKRSDSLLKTIRAGSKMRKQEFEDSAIAVVYAENSGRCSKNDKDEKALPNGEAWIPNLVKAITDVATNQRKAIHVDKKMVDGSYSDDKGKKLIPLIIGAQYLIVKMIQGAIRNDIKTSGKPL [R130A], the “effect of a mutation on the interaction” value is given as “decreasing interaction”.
